According to publication PMC2270309, “Insights into Mad2 Regulation in the Spindle Checkpoint Revealed by the Crystal Structure of the Symmetric Mad2 Dimer” (PLoS Biology, 2008):

Columns and labels:
[1] = biological target: His6-O-Mad2^ΔN10 (human); test: SEC; gel filtration of the high-salt peak (Q2) of anion exchange chromatography (holds the C-Mad2 conformer)
[2] = biological target: Mad2^R133A (human, UniProt Q13257 1-205, R133A); test: ITC
[3] = biological target: Mad2^Y156A (in the background of R133A) (human, UniProt Q13257 1-205, Y156A | R133A); test: ITC
[4] = biological target: Mad2^L153A (in the background of R133A) (human, UniProt Q13257 1-205, L153A | R133A); test: ITC
[5] = biological target: Mad2^L13A,R133A double mutant (human, UniProt Q13257 1-205, L13A | R133A); test: ITC
[6] = biological target: the molecule itself; test: AUC; sedimentation equilibrium at 4 °C; 0.23, 0.36 and 0.50 mg/ml; 20 mM Tris pH 8.0, 50 mM NaCl, 0.2 mM TCEP; 13,000, 17,500 and 25,000 rpm; global fit to a monomer-dimer equilibrium; dimer to monomers
[7] = biological target: Human Cdc20 (human, UniProt Q12834 1-499); test: cell-based or functional assay
[8] = biological target: the molecule itself; test: SEC; gel filtration of the high-salt peak (Q2) of anion exchange chromatography (holds the C-Mad2 conformer)

Human Cdc20, sequence (Q12834 whole entry): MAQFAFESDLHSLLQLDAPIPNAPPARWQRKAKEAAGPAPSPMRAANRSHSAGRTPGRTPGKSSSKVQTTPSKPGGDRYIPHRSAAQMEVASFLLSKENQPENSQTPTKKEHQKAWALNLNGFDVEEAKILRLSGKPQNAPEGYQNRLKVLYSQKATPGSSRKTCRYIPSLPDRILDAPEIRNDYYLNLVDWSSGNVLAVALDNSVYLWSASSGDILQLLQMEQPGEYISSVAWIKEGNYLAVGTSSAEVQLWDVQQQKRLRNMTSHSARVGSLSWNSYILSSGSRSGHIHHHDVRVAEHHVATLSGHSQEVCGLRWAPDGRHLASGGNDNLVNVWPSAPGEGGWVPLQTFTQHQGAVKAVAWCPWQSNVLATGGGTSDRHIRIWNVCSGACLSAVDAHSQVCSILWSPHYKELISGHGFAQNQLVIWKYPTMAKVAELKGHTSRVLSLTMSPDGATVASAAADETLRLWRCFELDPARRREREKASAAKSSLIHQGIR

Molecule: untagged C-Mad2^ΔN10 (domain or fragment)
- stoichiometry N [1]: 1

B1: Mad2-binding motif of Cdc20 (domain or fragment)
chain: EHQKAWALNLNGFDVEEAKILRLSGKPQ
modifications: Limits not printed. 111-138 is the conventional Mad2-binding fragment of human Cdc20 around the KILR motif (129-132). Check residues come from the candidate's motif feature, not from the paper.
- Kd [2]: 140 nM
- Kd [3]: 560 nM
- Kd [4]: 210 nM
- Kd [5]: 120 nM

B2: Mad2^L13A,C79S,C106S triple mutant (natural protein, human, UniProt Q13257 1-205, looked up)
chain: MALQLSREQGITARGSAEIVAEFFSFGINSILYQRGIYPSETFTRVQKYGLTLLVTTDLELIKYLNNVVEQLKDWLYKSSVQKLVVVISNIESGEVLERWQFDIESDKTAKDDSAPREKSQKAIQDEIRSVIRQITATVTFLPLLEVSCSFDLLIYTDKDLVVPEKWEESGPQFITNSEEVRLRSFTTTIHKVNSMVAYKIPVND
notes: Mad2, human, coding region (205 residues), with L13A, C79S and C106S; also called Mad2^L13A dimer; symmetric C–C Mad2 dimer; source: E. coli BL21 (pGEX), purified (glutathione-Sepharose, TEV cleavage, anion exchange, gel filtration)
- Kd [6]: 250 nM
- stoichiometry N [6]: ~2
- inhibition of APC/C^Cdc20 in an in vitro reconstituted APC/C ubiquitination assay (Myc-cyclin B1); Mad2 dimers at 1–16 μM preincubated with Cdc20 for 30 min [7]: ~3 fold
- stoichiometry N [8]: 2
